Data set [1] has as its system colony forming units (CFU). The settings on record: administered by inhalation, CF patients; cited from earlier work.
For data set [2] the following is noted: administered by inhalation, CF patients; cited from earlier work.
Data set [3] has as its system DNA. In words: Enzymatic activity of human DNase forms, methyl green (MG) assay. The data set is classed as biochemical. An excerpt:
Kurnick, Arch. Biochem. 29:41 (1950). […] Thus, by combining the purified deamidated DNases and the purified non-deamidated DNase of the present invention in various proportions, it is possible to prepare pharmaceutical compositions of human DNase having any desired specific activity in the range between the specific activities of the individual components, as may be optimal for treating particular disorders.

The test system of data set [4] is DNA. In words: Enzymatic activity of doubly deamidated DNase. The class given is biochemical. The settings on record: deamidated at Asn 7 and Asn 74.
Data set [5] has as its system DNA. In words: DNase viscosity assay (DNA digestion). The settings on record: DNase 1 μg/mL, 2 mg/mL DNA, 1 mM Ca2+ and Mg2+. The class given is biochemical. As for the experimental part: At specific time points aliquots of samples were taken from the vials, diluted and analyzed for DNase activity. Enzymatic activity of DNase was determined by viscosity assay. DNA decomposition by DNase results in decrease of viscosity. DNase at 1 μg/mL normally can digest 2 mg/mL DNA resulting in decrease of viscosity from ˜25 cP (5 rpm) to 10 cP in ˜10 min (and to approaching 1 cP in longer time) in presence of 1 mM Ca^2+ and Mg^2+ ions. Kinetics of viscosity change due to degradation of DNA was measured by Brookfield D-II+ Pro viscosimeter at 5 rpm. Results showing increased stability for DNase when stored in the presence of empty liposomes or liposomal encapsulated antiinfective are presented in FIG. 2.
Activity was determined as a reciprocal value of a time to reduce viscosity in half, normalized to activity of standard DNase solution (A=T1/2^std/T1/2). The two curves in FIG. 3 illustrate an activity assay and how T1/2 is determined. The curves represent typical change in viscosity of DNA solution after DNase is added. v1 is viscosity at 1 minute, when the first measurement point is taken. T1/2 is the time interval after adding DNase required to reach viscosity level equal to half of v1.

The text below walks through data of patent US20080131497A1, “Formulations of DNase and Methods of Use Thereof” (priority 2006, published 2008).

As for `NC[C@H]1O[C@H](O[C@H]2[C@H](O)[C@@H](O[C@H]3O[C@H](CO)[C@@H](O)[C@H](N)[C@H]3O)[C@H](N)C[C@@H]2N)[C@H](N)C[C@@H]1O` [tobramycin, reference compound], in data set [1], the “reduction in colony forming units (CFU)” value is recorded as “about 2 log units”. Besides, the “improvement in FEV1” value in data set [2] is recorded as “approximately 10%”.

B1: deamidated human DNase: human DNase deamidated at the asparagine residue at position 74 of native mature human DNase (protein, UniProt P24855 23-282, looked up, variant N74D)
Deoxyribonuclease-1: LKIAAFNIQTFGETKMSNATLVSYIVQILSRYDIALVQEVRDSHLTAVGKLLDNLNQDAPDTYHYVVSEPLGRDSYKERYLFVYRPDQVSAVDSYYYDDGCEPCGNDTFNREPAIVRFFSRFTEVREFAIVPLHAAPGDAVAEIDALYDVYLDVQEKWGLEDVMLMGDFNAGCSYVRPSQWSSIRLWTSPTFQWLIPDSADTTATPTHCAYDRIVVAGMLLRGAVVPDSALPFNFQAAYGLSDQLAQAISDHYPVEVMLK
modifications: deamidation
notes: human DNase deamidated at the asparagine residue at position 74 of native mature human DNase
With B1, the “enzymatic activity compared to non-deamidated human DNase” value in data set [3] was “just over half”.

B2: doubly deamidated DNase: human DNase deamidated at asparagine position 7 in addition to position 74 (protein, UniProt P24855 23-282, looked up, variant N7D N74D)
Deoxyribonuclease-1: LKIAAFDIQTFGETKMSNATLVSYIVQILSRYDIALVQEVRDSHLTAVGKLLDNLNQDAPDTYHYVVSEPLGRDSYKERYLFVYRPDQVSAVDSYYYDDGCEPCGNDTFNREPAIVRFFSRFTEVREFAIVPLHAAPGDAVAEIDALYDVYLDVQEKWGLEDVMLMGDFNAGCSYVRPSQWSSIRLWTSPTFQWLIPDSADTTATPTHCAYDRIVVAGMLLRGAVVPDSALPFNFQAAYGLSDQLAQAISDHYPVEVMLK
modifications: deamidation
On to B2, for which, in data set [4], the enzymatic activity entry is “enzymatically inactive”.

B3: Pulmozyme: highly purified, commercially available solution of DNase (from Genentech); recombinant human DNase (protein, UniProt P24855 23-282, looked up)
Deoxyribonuclease-1: LKIAAFNIQTFGETKMSNATLVSYIVQILSRYDIALVQEVRDSHLTAVGKLLDNLNQDAPDTYHYVVSEPLGRNSYKERYLFVYRPDQVSAVDSYYYDDGCEPCGNDTFNREPAIVRFFSRFTEVREFAIVPLHAAPGDAVAEIDALYDVYLDVQEKWGLEDVMLMGDFNAGCSYVRPSQWSSIRLWTSPTFQWLIPDSADTTATPTHCAYDRIVVAGMLLRGAVVPDSALPFNFQAAYGLSDQLAQAISDHYPVEVMLK
As to B3, the “improvement in FEV1” value in data set [2] is “approximately 10%”.

B4: DNase: recombinant human deoxyribonuclease I, an enzyme which selectively cleaves DNA; standard in viscosity assay (protein, UniProt P24855 23-282, looked up)
Deoxyribonuclease-1: LKIAAFNIQTFGETKMSNATLVSYIVQILSRYDIALVQEVRDSHLTAVGKLLDNLNQDAPDTYHYVVSEPLGRNSYKERYLFVYRPDQVSAVDSYYYDDGCEPCGNDTFNREPAIVRFFSRFTEVREFAIVPLHAAPGDAVAEIDALYDVYLDVQEKWGLEDVMLMGDFNAGCSYVRPSQWSSIRLWTSPTFQWLIPDSADTTATPTHCAYDRIVVAGMLLRGAVVPDSALPFNFQAAYGLSDQLAQAISDHYPVEVMLK
As to B4, the “time for decrease of viscosity from ~25 cP (5 rpm) to 10 cP” value in data set [5] was ~10 min.
